± gives the uncertainty stated by the source.
Experiment: self-splicing fitness, log relative to wild type (ln ratio); higher = more splicing; Tetrahymena group I intron in knt gene, E. coli kanamycin selection, DiMSum; sequences stand for … in CUCUCU…GGAGGGAAAAGUUAUCAGGCAUGCACCUGGUAGCUAGUCUUUAAACCAAUAGAUUGCAUCGGUUUAAAAGGCAAGACCGUCAAAUUGCGGGAAAGGGGUCAACAGCCGUUCAGUACCAAGUCUCAGGGGAAACUUUGAGAUGGCCUUGCAAAGGGUAUGGUAAUAAGCUGACGGACAUGGUCCUAACCACGCAGCCAAGUCCUAAGUCAACAGAUCUUCUGUUGAUAUGGAUGCAGUUCACAGACUAAAUGUCGGUCGGGGAAGAUGUAUUCUUCUCAUAAGAUAUAGUCGGACCUCUCCUUAAUGGGAGCUAGCGGAUGAAGUGAUGCAACACUGGAGCCGCUGGGAACUAAUUUGUAUGCGAAAGUAUAUUGAUUAGUUUUGGAGUACUCGUGGUCG
Outline: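 Library with all eight P1ex-region intron nucleotides randomised, intron inside the knt kanamycin-resistance gene on pET-22b(+), in E. coli BL21(DE3). Cells grew overnight at 37°C or 30°C on LB agar with or without 25 μg/mL kanamycin (plus 100 μg/mL carbenicillin, 50 μM IPTG, 0.2% rhamnose), in six replicate transformations. Pooled colonies were amplicon-sequenced on Illumina HiSeq 2500. DiMSum fitness is the error-weighted combination of wild-type-normalised replicate fold changes, kanamycin versus none.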

Row | Sequence | self-splicing fitness (ln) (30 °C) | self-splicing fitness (ln) (37 °C)
1 | ACGCAGCAAUAUUACGCGUC | -4.42 ± 0.17 | -2.18 ± 0.14
2 | ACGCAGCAAUAUUACGCGUU | -3.56 ± 0.14 | -2.42 ± 0.18
3 | ACGCAGCAAUAUUACGCUUU | -1.69 ± 0.079 | -1.15 ± 0.11
4 | ACGCAGCAAUAUUACGGCGA | -0.895 ± 0.1 | -0.0901 ± 0.14
5 | ACGCAGCAAUAUUACGGGGC | -3.8 ± 0.24 | -3.15 ± 0.28
6 | ACGCAGCAAUAUUACGGUCG | -0.525 ± 0.055 | -0.355 ± 0.072
7 | ACGCAGCAAUAUUACGUCAA | -3.09 ± 0.2 | -2.57 ± 0.15
8 | ACGCAGCAAUAUUACGUCAG | -2.75 ± 0.12 | -3 ± 0.19
9 | ACGCAGCAAUAUUACGUCUC | -3.88 ± 0.13 | -0.606 ± 0.084
10 | ACGGAGCAAUAUUACGACCU | -1.69 ± 0.2 | -1.34 ± 0.25
11 | ACGGAGCAAUAUUACGACGC | -1.26 ± 0.15 | -1.11 ± 0.17
12 | ACGGAGCAAUAUUACGAGAC | -0.64 ± 0.18 | –
13 | ACGGAGCAAUAUUACGAUCU | -2.61 ± 0.14 | -1.37 ± 0.11
14 | ACGGAGCAAUAUUACGAUGC | -3.69 ± 0.43 | -1.74 ± 0.29
15 | ACGGAGCAAUAUUACGCAUU | -3.43 ± 0.43 | -2.85 ± 0.34
16 | ACGGAGCAAUAUUACGCGUU | – | -1.9 ± 0.21
17 | ACGGAGCAAUAUUACGCUCA | -1.04 ± 0.19 | -0.0662 ± 0.3
18 | ACGGAGCAAUAUUACGCUGG | -3.77 ± 0.29 | -1.2 ± 0.18
19 | ACGGAGCAAUAUUACGGAAU | -1.57 ± 0.39 | -2.5 ± 0.45
20 | ACGGAGCAAUAUUACGGAUA | -3.27 ± 0.33 | -2.61 ± 0.42
21 | ACGGAGCAAUAUUACGGAUG | -2.66 ± 0.31 | -1.17 ± 0.28
22 | ACGGAGCAAUAUUACGGCCU | -2.12 ± 0.17 | -1.2 ± 0.21
23 | ACGGAGCAAUAUUACGGUAA | -2.95 ± 0.49 | -3.1 ± 0.28
24 | ACGGAGCAAUAUUACGGUCA | -3.14 ± 0.3 | -1.35 ± 0.18
25 | ACGGAGCAAUAUUACGGUGU | -3.78 ± 0.2 | -2.35 ± 0.16

Row | Sequence | self-splicing fitness (ln) (30 °C) | self-splicing fitness (ln) (37 °C)
26 | ACGGAGCAAUAUUACGUAAA | – | -1.27 ± 0.35
27 | ACGGAGCAAUAUUACGUAGA | -4.18 ± 0.31 | -2.41 ± 0.24
28 | ACGGAGCAAUAUUACGUAGG | -3.48 ± 0.26 | –
29 | ACGGAGCAAUAUUACGUAUA | -2.42 ± 0.18 | -1.86 ± 0.25
30 | ACGGAGCAAUAUUACGUGCG | -2.63 ± 0.17 | -1.79 ± 0.18
31 | ACGGAGCAAUAUUACGUUGG | -3.62 ± 0.23 | -2.05 ± 0.17
32 | ACGUAGCAAUAUUACGAAAU | -2.28 ± 0.19 | -1.3 ± 0.26
33 | ACGUAGCAAUAUUACGAACC | -1.44 ± 0.11 | -0.279 ± 0.15
34 | ACGUAGCAAUAUUACGACGA | 0.179 ± 0.11 | -0.0557 ± 0.12
35 | ACGUAGCAAUAUUACGAGAG | -2.93 ± 0.14 | -2.97 ± 0.23
36 | ACGUAGCAAUAUUACGAGGA | -2.78 ± 0.33 | -2.75 ± 0.38
37 | ACGUAGCAAUAUUACGCAAC | -2.74 ± 0.31 | -2.17 ± 0.35
38 | ACGUAGCAAUAUUACGCACU | -1.46 ± 0.18 | -0.549 ± 0.23
39 | ACGUAGCAAUAUUACGCCCC | -1.38 ± 0.27 | -1.28 ± 0.29
40 | ACGUAGCAAUAUUACGCCUU | -1.42 ± 0.064 | -0.00228 ± 0.076
41 | ACGUAGCAAUAUUACGCGCG | -1.28 ± 0.15 | -0.103 ± 0.18
42 | ACGUAGCAAUAUUACGCUCA | -0.72 ± 0.12 | 0.189 ± 0.11
43 | ACGUAGCAAUAUUACGGACA | -1.1 ± 0.083 | -0.739 ± 0.092
44 | ACGUAGCAAUAUUACGGCCC | -0.341 ± 0.15 | 0.0459 ± 0.25
45 | ACGUAGCAAUAUUACGGGAA | -1.95 ± 0.2 | -3.19 ± 0.37
46 | ACGUAGCAAUAUUACGGGGG | -3.84 ± 0.2 | -2.44 ± 0.16
47 | ACGUAGCAAUAUUACGGGUA | -1.29 ± 0.13 | -0.928 ± 0.12
48 | ACGUAGCAAUAUUACGGGUU | -3.54 ± 0.2 | -2.07 ± 0.21
49 | ACGUAGCAAUAUUACGGUUA | -0.772 ± 0.091 | -0.0368 ± 0.092

Source: the supplement of paper PMC7877785
